Consider 94 variants from the supplement of paper PMC10567573.

First the molecules themselves.
B1: LPCAT4 (parent)
chain: HDPLYGKLFSTYLRPPHTSRGTSQ
B2: TRIM55 (parent)
chain: FQASNPYLPTRGGTTMASGGRFRC
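Also: lentivirally expressed fusions sorted by FACS into six bins by GFP to DsRed ratio, PSI derived from sequencing read proportions per bin multiplied by bin number.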

In one data set the parent is B1. Description: protein stability index of a GFP-peptide fusion (GPS, HEK-293T) (PSI 1-6); higher = more stable. The conditions noted are these: c terminus: a fixed tail appended.
HDPLYGKLFSTYLRPPHASRGTSQ [T18A]: the protein stability index was determined as 2.52.

Consider HDPLYGKLFSTYLRPPHTSRGTGQ [S23G], for which the protein stability index is 2.18.

Turning to HDPLYGKLFSTYLRPPHTSRGTTQ [S23T], the protein stability index stood at 2.66.

Regarding HDPLYGKLFSTYLRPPHTSRGTCQ [S23C], the protein stability index turned out to be 2.61.

Turning to HDPLYGKLFSTYLRPPHTSRGTNQ [S23N], the protein stability index is 2.77.

HDPLYGKLFSTYLRPPHTSRGTDQ [S23D]: the protein stability index was 3.17.

In the case of HDPLYGKLFSTYLRPPHTSRGTVQ [S23V], the protein stability index is 2.49.

HDPLYGKLFSTYLRPPHTSRGTRQ [S23R]: the protein stability index is 2.45.

For the variant HDPLYGKLFSTYLRPPHTSRGTMQ [S23M], the protein stability index worked out at 2.34.

Turning to HDPLYGKLFSTYLRPPHTSRGTKQ [S23K], the protein stability index was determined as 2.51.

Take HDPLYGKLFSTYLRPPHTSRGTIQ [S23I]: the protein stability index came out at 2.3.

As for HDPLYGKLFSTYLRPPHTSRGTWQ [S23W], the protein stability index was 2.4.

Turning to HDPLYGKLFSTYLRPPHTSRGTEQ [S23E], the protein stability index is 2.64.

For HDPLYGKLFSTYLRPPHTSRGTQQ [S23Q], the protein stability index was 2.52.

Turning to HDPLYGKLFSTYLRPPHTSRGTFQ [S23F], the protein stability index is 2.09.

Regarding HDPLYGKLFSTYLRPPHTSRGTPQ [S23P], the protein stability index came to 2.87.

Turning to HDPLYGKLFSTYLRPPHTSRGTLQ [S23L], the protein stability index is 2.39.

As to HDPLYGKLFSTYLRPPHTSRGTYQ [S23Y], the protein stability index was 2.19.

As for HDPLYGKLFSTYLRPPHTSRGTHQ [S23H], the protein stability index stood at 2.73.

HDPLYGKLFSTYLRPPHTSRGTAQ [S23A]: the protein stability index came to 3.

In the case of HDPLYGKLFSTYLRPPWTSRGTSQ [H17W], the protein stability index was 2.19.

On to HDPLYGKLFSTYLRPPTTSRGTSQ [H17T], for which the protein stability index stood at 2.82.

Turning to HDPLYGKLFSTYLRPPYTSRGTSQ [H17Y], the protein stability index came to 2.53.

HDPLYGKLFSTYLRPPSTSRGTSQ [H17S]: the protein stability index worked out at 2.31.

In the case of HDPLYGKLFSTYLRPPVTSRGTSQ [H17V], the protein stability index amounted to 2.53.

With HDPLYGKLFSTYLRPPHTSRGASQ [T22A], the protein stability index was 2.66.

HDPLYGKLFSTYLRPPHTSRGNSQ [T22N]: the protein stability index is 2.8.

Consider HDPLYGKLFSTYLRPPHTSRGSSQ [T22S], for which the protein stability index amounted to 2.74.

Regarding HDPLYGKLFSTYLRPPHTSRGFSQ [T22F], the protein stability index came out at 2.42.

Turning to HDPLYGKLFSTYLRPPHTSRGRSQ [T22R], the protein stability index is 2.48.

Consider HDPLYGKLFSTYLRPPHTSRGPSQ [T22P], for which the protein stability index is 2.59.

As for HDPLYGKLFSTYLRPPHTSRGESQ [T22E], the protein stability index amounted to 3.04.

For the variant HDPLYGKLFSTYLRPPHTSRGVSQ [T22V], the protein stability index was 2.12.

As to HDPLYGKLFSTYLRPPHTSRGQSQ [T22Q], the protein stability index is 2.32.

HDPLYGKLFSTYLRPPHTSRGYSQ [T22Y]: the protein stability index worked out at 2.13.

Turning to HDPLYGKLFSTYLRPPHTSRGWSQ [T22W], the protein stability index came to 1.98.

As to HDPLYGKLFSTYLRPPHTSRGKSQ [T22K], the protein stability index was 2.61.

For HDPLYGKLFSTYLRPPHTSRGISQ [T22I], the protein stability index came to 2.22.

Consider HDPLYGKLFSTYLRPPHTSRGCSQ [T22C], for which the protein stability index was found to be 2.43.

On to HDPLYGKLFSTYLRPPHTSRGDSQ [T22D], for which the protein stability index was 2.6.

As for HDPLYGKLFSTYLRPPHTSRGLSQ [T22L], the protein stability index was 2.81.

Regarding HDPLYGKLFSTYLRPPHTSRGMSQ [T22M], the protein stability index is 2.72.

As for HDPLYGKLFSTYLRPPHTSRGHSQ [T22H], the protein stability index came to 2.81.

For HDPLYGKLFSTYLRPPHTSRGGSQ [T22G], the protein stability index was found to be 2.75.

The variants in the next data set derive from B2. The description is as above. The conditions noted are these: c terminus: a fixed tail appended.
For the variant LQASNPYLPTRGGTTMASGGRFRC [F1L], the protein stability index amounted to 3.37.

In the case of IQASNPYLPTRGGTTMASGGRFRC [F1I], the protein stability index is 3.13.

As for YQASNPYLPTRGGTTMASGGRFRC [F1Y], the protein stability index came to 2.06.

For MQASNPYLPTRGGTTMASGGRFRC [F1M], the protein stability index is 3.4.

Consider QQASNPYLPTRGGTTMASGGRFRC [F1Q], for which the protein stability index turned out to be 3.91.

As for GQASNPYLPTRGGTTMASGGRFRC [F1G], the protein stability index was 3.91.

WQASNPYLPTRGGTTMASGGRFRC [F1W]: the protein stability index stood at 2.58.

As to VQASNPYLPTRGGTTMASGGRFRC [F1V], the protein stability index turned out to be 3.16.

As for CQASNPYLPTRGGTTMASGGRFRC [F1C], the protein stability index came out at 2.2.

Turning to KQASNPYLPTRGGTTMASGGRFRC [F1K], the protein stability index turned out to be 3.41.

Regarding NQASNPYLPTRGGTTMASGGRFRC [F1N], the protein stability index was determined as 3.55.

Regarding TQASNPYLPTRGGTTMASGGRFRC [F1T], the protein stability index was 3.49.

For the variant SQASNPYLPTRGGTTMASGGRFRC [F1S], the protein stability index came to 3.52.

PQASNPYLPTRGGTTMASGGRFRC [F1P]: the protein stability index was determined as 3.91.

As to RQASNPYLPTRGGTTMASGGRFRC [F1R], the protein stability index is 3.57.

Turning to DQASNPYLPTRGGTTMASGGRFRC [F1D], the protein stability index was determined as 3.43.

As to AQASNPYLPTRGGTTMASGGRFRC [F1A], the protein stability index worked out at 3.51.

HQASNPYLPTRGGTTMASGGRFRC [F1H]: the protein stability index was 3.24.

For the variant EQASNPYLPTRGGTTMASGGRFRC [F1E], the protein stability index came to 3.59.

Take FDASNPYLPTRGGTTMASGGRFRC [Q2D]: the protein stability index turned out to be 3.43.

For the variant FYASNPYLPTRGGTTMASGGRFRC [Q2Y], the protein stability index worked out at 2.2.

As for FRASNPYLPTRGGTTMASGGRFRC [Q2R], the protein stability index worked out at 2.68.

With FVASNPYLPTRGGTTMASGGRFRC [Q2V], the protein stability index stood at 1.74.

FCASNPYLPTRGGTTMASGGRFRC [Q2C]: the protein stability index was 1.44.

Consider FLASNPYLPTRGGTTMASGGRFRC [Q2L], for which the protein stability index came to 1.94.

As to FGASNPYLPTRGGTTMASGGRFRC [Q2G], the protein stability index worked out at 1.9.

In the case of FKASNPYLPTRGGTTMASGGRFRC [Q2K], the protein stability index stood at 2.85.

For FTASNPYLPTRGGTTMASGGRFRC [Q2T], the protein stability index is 1.68.

For FHASNPYLPTRGGTTMASGGRFRC [Q2H], the protein stability index is 2.99.

FAASNPYLPTRGGTTMASGGRFRC [Q2A]: the protein stability index was found to be 2.17.

Regarding FSASNPYLPTRGGTTMASGGRFRC [Q2S], the protein stability index came out at 2.13.

In the case of FEASNPYLPTRGGTTMASGGRFRC [Q2E], the protein stability index came to 3.38.

On to FFASNPYLPTRGGTTMASGGRFRC [Q2F], for which the protein stability index worked out at 2.03.

In the case of FWASNPYLPTRGGTTMASGGRFRC [Q2W], the protein stability index was 2.3.

As for FMASNPYLPTRGGTTMASGGRFRC [Q2M], the protein stability index came to 2.

As to FNASNPYLPTRGGTTMASGGRFRC [Q2N], the protein stability index came out at 2.68.

Turning to FPASNPYLPTRGGTTMASGGRFRC [Q2P], the protein stability index is 1.61.

As for FIASNPYLPTRGGTTMASGGRFRC [Q2I], the protein stability index is 2.22.

With FQCSNPYLPTRGGTTMASGGRFRC [A3C], the protein stability index turned out to be 1.32.

Take FQGSNPYLPTRGGTTMASGGRFRC [A3G]: the protein stability index is 1.95.

Turning to FQFSNPYLPTRGGTTMASGGRFRC [A3F], the protein stability index was 2.69.

Regarding FQISNPYLPTRGGTTMASGGRFRC [A3I], the protein stability index was 1.76.

For FQHSNPYLPTRGGTTMASGGRFRC [A3H], the protein stability index was 1.24.

For FQDSNPYLPTRGGTTMASGGRFRC [A3D], the protein stability index came out at 2.71.

As for FQNSNPYLPTRGGTTMASGGRFRC [A3N], the protein stability index stood at 2.18.

With FQLSNPYLPTRGGTTMASGGRFRC [A3L], the protein stability index stood at 1.8.

For FQESNPYLPTRGGTTMASGGRFRC [A3E], the protein stability index amounted to 2.55.

For the variant FQKSNPYLPTRGGTTMASGGRFRC [A3K], the protein stability index is 1.69.

For FQPSNPYLPTRGGTTMASGGRFRC [A3P], the protein stability index was found to be 2.02.

On to FQMSNPYLPTRGGTTMASGGRFRC [A3M], for which the protein stability index was 1.83.
